Assay results published in patent publication US20150160235A1 (Takeda / Millennium, published 2015).

Target: T1, oxMIF (oxidized macrophage migration inhibitory factor) in human tissue cryosections (human, UniProt P14174 2-115)
T1 construct: mature; Native oxMIF isoform in unfixed, air-dried cryosections of patient tissue (kidney, pancreas, breast, brain, lung, colon); also called oxidized MIF
Test: IHC, biotinylated RAM9 5 µg/ml on unfixed kidney cryosections, streptavidin-HRP/DAB
Method: The kidney tissue slides were prepared according to state of the art techniques known to experts, either fresh frozen or OCT embedded, sectioned at 10 μm and stored at <=−80° C. after sectioning. All following steps were done at ambient temperature. The cryo-sections were air dried for 30 min and unspecific binding was blocked with blocking buffer (20% Normal Goat Serum/2% Bovine Serum Albumin/0.2% Fish Gelatine in TBS) for 30 min. The sections were then incubated with a primary, preferably biotinylated, anti-oxMIF Antibody (biotinylated-RAM9) in primary antibody dilution buffer (2% Bovine Serum Albumin/0.2% Fish Gelatine in TBS) at a concentration of 5 μg/ml for 60 min. After washing in TBS, the specimen was fixed in 4% PBS buffered formaldehyde for 15-20 min. Excess formaldehyde was removed by washing in TBS for 10 min. The staining was done using VECTASTAIN Elite ABC Reagent (HRP conjugated Streptavidin) for 30 min. Then the sections were extensively washed again 10 min in TBS. By using ImmPACT DAB Substrate for 10 minutes the staining was visualized as a brown color, which is reflected in FIG. 1A by a dark grey. The slides were washed in TBS and the nuclei were counterstained with Haematoxylin for 1-2 min. By washing the slides in tap water the color of the counter stain changes from violet to blue. […]

T1 sequence (P14174 2-115): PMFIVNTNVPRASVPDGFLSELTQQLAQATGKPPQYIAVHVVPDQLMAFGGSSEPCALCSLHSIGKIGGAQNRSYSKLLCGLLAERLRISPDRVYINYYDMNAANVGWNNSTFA

B1: anti-oxMIF antibody RAM9 (antibody, V domains shown)
VH: EVQLLESGGGLVQPGGSLRLSCAASGFTFSIYSMNWVRQAPGKGLEWVSSIGSSGGTTYYADSVKGRFTISRDNSKNTLYLQMNSLRAEDTAVYYCAGSQWLYGMDVWGQGTTVTVSS
VL: DIQMTQSPSSLSASVGDRVTITCRSSQRIMTYLNWYQQKPGKAPKLLIFVASHSQSGVPSRFRGSGSETDFTLTISGLQPEDSATYYCQQSFWTPLTFGGGTKVEIKR
notes: also called biotinylated-RAM9
- binding result: binds
